Source: patent US20190201542A1 (AbbVie / Abbott, published 2019)

T1: human DLL3 (human, UniProt Q9NYJ7 27-492, limits assumed)
T1 construct: also called hDLL3; DLL3 protein
T1 sequence: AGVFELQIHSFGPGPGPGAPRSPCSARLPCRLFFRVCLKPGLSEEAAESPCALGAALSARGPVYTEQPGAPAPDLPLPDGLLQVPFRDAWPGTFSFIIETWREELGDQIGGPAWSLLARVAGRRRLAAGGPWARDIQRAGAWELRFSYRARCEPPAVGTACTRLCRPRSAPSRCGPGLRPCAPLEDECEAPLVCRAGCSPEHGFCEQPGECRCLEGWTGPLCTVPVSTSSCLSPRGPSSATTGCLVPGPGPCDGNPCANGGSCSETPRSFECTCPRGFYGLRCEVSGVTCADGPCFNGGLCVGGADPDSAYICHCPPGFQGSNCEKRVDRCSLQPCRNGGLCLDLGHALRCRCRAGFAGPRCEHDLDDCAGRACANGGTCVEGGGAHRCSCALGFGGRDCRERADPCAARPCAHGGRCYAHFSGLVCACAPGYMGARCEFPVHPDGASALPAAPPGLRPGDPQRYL

T2: human ASCL1 (human, UniProt P50553 1-236, limits assumed)
T2 construct: Transcription factor; also called hASCL1; immobilized human ASCL1
T2 sequence (looked up): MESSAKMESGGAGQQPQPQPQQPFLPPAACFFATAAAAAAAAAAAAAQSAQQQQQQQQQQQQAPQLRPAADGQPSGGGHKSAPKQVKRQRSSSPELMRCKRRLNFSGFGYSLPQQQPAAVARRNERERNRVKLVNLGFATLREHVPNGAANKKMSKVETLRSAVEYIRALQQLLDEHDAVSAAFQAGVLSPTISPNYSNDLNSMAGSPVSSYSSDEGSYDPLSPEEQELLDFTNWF

B1: SC16.135 (antibody, V domains shown)
VH: QVQLQQSGAELVRPGTSVKVSCKASGYAFTNYLIEWVKQRPGQGLEWIGVINPGSGGTNSNEKFKAKATLTADKSSSTAYMQLSSLTSADSAVYFCARSDYDYAFYAMDYWGQGTSVTVSS
VL: DIKMTQSPSSMYASLGERVTITCKASQDINRYLSWFQQKPGKSPKTLIYRANRLVDGVPSRFSGSGSGQDYSLTISSLEYEDMGIYYCLQYDEFPFTFGSGTKLEIK
notes: murine mAb
B2: SC16.141 (antibody, V domains shown)
VH: QVQLKQSGPGLVAPSQSLFITCTVSGFSLTSYEINWVRQPPGKGLEWLGVIWTGGSTNYNSALISRLSISKDNSKSLVFLKMNSLQTDDTAIYYCVRGVYAMDYWGQGTSVTVSS
VL: DIKMTQSPSSMYASLGERVTITCKASQDINSYLSWFQQKPGKSPKTLIYRANRLVDGVPSRFSGSGSGQDYSLTISSLEYEDMGIYYCLQYDEFPFTFGSGTKLEIK
notes: murine mAb
B3: SC16.137 (antibody, V domains shown)
VH: EVQLVESGGDLVKPGGSLKLSCAASGFTFSSYGMSWVRQTPDKRLEWVATISSGGSYTYYPDSVKGRFTISRDNAKNTLYLQMSSLKSEDTAMYYCARRRADAMDYWGQGTSVTVSS
VL: QIVLTQSPAIMSASLGEEITLTCSASSSVSYMHWYQQKSGTSPKLLIYSTSNLASGVPSRFSGSGSGTFYSLTISSVEAEDAADYYCHQWSSYHTFGGGTKLEIKR
notes: murine mAb
B4: SC16.133 (antibody, V domains shown)
VH: QVQLKESGPGLVAPSQSLSITCTVSGFSLTNYAVHWVRQSPGKGLEWLGVIWSDGSTDYNAAFISRLSISKDNSKSQVFFKMNSLQADDTAMYYCARKKGGWFPWFAYWGQGTLVTVSA
VL: SIVMTQTPKFLLVSAGDRVTITCKASQSVSNDVAWYQQKPGQSPKLLIYCASNRYTGVPDRFTGSGYGTDFTFTISTVQAEDLAVYFCQQDYSSPLTFGAGTKLELK
notes: murine mAb
B5: SC16.144 (antibody, V domains shown)
VH: QIQLVQSGPELKKPGETVKISCKASGYTFTNYGMNWVKQAPGKGLKWVGWINTYTGEPTYADDFKGRFAFSLETSASTAYLQIDNLKNEDTATYFCARVGDYVGFDYWGQGTTLTVSS
VL: SIVMTQTPKFLLVSAGDRVTITCKASQSVSNDVGWYQQKPGQSPKLLIYYASNRYNGVPDRFTGSGYGTDFTFTISTVQAEDLAVYFCQQDYSSPWTFGGGTKLEIK
notes: murine mAb
B6: SC16.143 (antibody, V domains shown)
VH: QVQLQQSGPELVKPGASVRISCKASGYTFTSYYIHWVKQRPGQGLEWIGWIYPGNGNTKYNEKFKGKATLTADKSSSTAYMQISSLTSEDSAVYFCARERWLLLWFAYWGQGTLVTVSA
VL: DVLMTQTPLSLPVSLGDQASISCRSSQSIVHSNGNTYLEWYLQKPGQSPKLLIYKVSNRFSGVPDRFSGSGSGTDFTLKISRVEAEDLGVYYCFQGSHVPLTFGAGTKLELK
notes: murine mAb
B7: SC16.138 (antibody, V domains shown)
VH: QVQLKESGPGLVAPSQSLSITCTVSGFSLTDYGVSWIRQPPGKGLEWLGVVWGGGSTYYNSALKSRLSISKDNSKSQVFLKMNSLQTDDTAMYYCAKQRGQYGAYWGQGTLVTVSA
VL: DIQMTQSPASQSASLGESVTITCLASQTIGTWLAWYQQKPGKSPQLLIYSATSLADGVPSRFSGSGSGTKFSFKISSLQAEDFVSYYCQQLYSTPWTFGGGTKLEIK
notes: murine mAb
B8: SC16.147 (antibody, V domains shown)
VH: QIQLVQSGPELTKPGETVKISCKASGYTFTDYSLHWVKQALGKGLKWMGWINTETGEPAYADDFKGRFAFSLETSASTAYLQINDLKNEDTTTYFCGIYDGYAMDYWGQGTSVTVSS
VL: DIQMTQTASSLSASLGDRVTISCRASQDINNYLNWYQQKPDGTVKLLIYYTSRLHSGVPSRFSGSGSGTDYSLTISILEQEDIATYFCQQGDTLPWTFGGGTKLEIK
notes: murine mAb
B9: SC16.148 (antibody, V domains shown)
VH: QIQLVQSGPELKKPGETVKISCKASGYTLTNYGMNWVKQAPGKGLKWMGWINTYTGEPTYADDFKGRFAFSLETSARIVYLQINNLKNEDTATYFCAKYEAHEGFVYWGQGTLVTVSA
VL: QIVLTQSPAIMSASPGEKVTMTCSASSSVSYMYWYQQKPGSSPRLLIYDTSNLASGVPVRFSGSGSGTSYSLTISRMEAEDTATYYCQEWSNNPLTFGDGTKLELK
notes: murine mAb
B10: SC16.130 (antibody, V domains shown)
VH: EVQLQQSGPELVKPGASVKMSCKASGYTFTSYVMHWVKQKPGQGLEWIGYINPYNDGTEYNEKFKGKATLTSDKSSSTAYMELSSLTSEDSAVYYCARGVYDGYSYFDYWGQGTTLTVSS
VL: DIQLTQSPASLSASVGETVTITCRASGSIHNYLAWYQQKQGKSPQLLVYNAKTLVDGVPSRFSGSGSGTQYSLKINSLQPEDFGYYYCQHFWTTPWTFGGGTKLEIK
notes: murine mAb
B11: SC16.136 (antibody, V domains shown)
VH: EVQLQQSGPELVKPGASVKMSCKASGYTFTSYVMHWVKQKPGQGLEWIGYINPYNDGTKYNEKFKGKATLTSDKSSSTAYMELSSLTSEDSAVYYCARDRSGYEDYYGMDYWGQGTSVTVSS
VL: DIQMTQSPASLSASVGETVTITCRASGNIHNYLAWYQQKQGKSPHLLVYNAKTLADGVPSRFSGSGSGTQYSLKINSLQPEDFGSYYCQHFWSTPWTFGGGTKLEIK
notes: murine mAb
B12: SC16.15 (antibody, V domains shown)
VH: QVQLQQSGAELAKPGASVKMSCKASGYTFTRYWIHWIKQRPGQGLEWIGYINPTTVYTEFNQNFKDKATLTADKSSTTASMQLSSLTSEDSAVYYCARGGSNFFDYWGQGTTLTVSS
VL: DIQMTQSPASLAASVGETVAITCRASENIYYNLAWYQQKQGKSPQLLIYTANSLEDGVPSRFSGSGSGTQYSLKINSMQPEDSATYFCKQAYDVPPTFGGGTKLEIK
notes: murine mAb
B13: SC16.140 (antibody, V domains shown)
VH: QVQLQQSGPELVRPGASVKMSCKASGYTFTSYWMHWVKQRPGQGLEWIGMIDPSNSETRLNQKFKDKATLNVDKSSNTAYMQLSSLTSEDSAVYYCAVMDYYFDYWGQGTTLTVSS
VL: DIVLTQSLASLAVSLGQRATISCRASKSVSTSGYSYMHWYQQKPGQPPKLLIYLASNLESGVPARFSGSGSGTDFTLNIHPVEDEDAATYYCQHSRELPFTFGGGTKLEIK
notes: murine mAb
B14: SC16.131 (antibody, V domains shown)
VH: QVQLKESGPGLVAPSQSLSITCTVSGFSLTNYGVHWVRQPPGKGLEWLGVIWAGGITNYNSALMSRLSISEDNSKSQVFLKMNSLQTDDTAMYYCARNLGPYAMDYWGQGTSVTVSS
VL: DIQMNQSPSSLSASLGDTITITCHVSQNINVWLSWYQQKPGNIPKLLIQKASNLHTGVPSRFSGSGSGTGFTLTISSLQPEDIATYYCQQGQSYPFTFGSGTKLEIK
notes: murine mAb
B15: SC72.28 (antibody, V domains shown)
VH: DVQLQQSGAELVRPGALVKLSCKASGFNIKDYLIHWVKQRPEQGLEWIGCIDPENGNTIYDPRFQGKAKITSDTSSTTAYLRLTSLTSEDTAVYYCGRGGLDYWGQGTTLTVSS
VL: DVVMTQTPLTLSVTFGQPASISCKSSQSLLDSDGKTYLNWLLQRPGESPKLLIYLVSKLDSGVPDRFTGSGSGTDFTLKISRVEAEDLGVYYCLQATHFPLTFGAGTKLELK
notes: murine mAb
B16: SC72.93 (antibody, V domains shown)
VH: QVQLQQSGAELVRPGASVTLSCKASGYIFIDYEMHWVKQTPVHGLEWIGSIDPETGDTVYNQKFKGKATLTADKSSSTAYMELRSLTSEDSAVYYCSRGGLDYWGQGTTLTVSS
VL: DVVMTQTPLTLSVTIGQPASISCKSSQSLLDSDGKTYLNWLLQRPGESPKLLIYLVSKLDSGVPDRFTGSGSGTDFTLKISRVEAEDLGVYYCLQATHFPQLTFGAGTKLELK
notes: murine mAb; same VL as SC72.2

The binders below were run against T1, human DLL3 (assay: screen on immobilized hDLL3 or h293-hDLL3 cells).
How it was run: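 After 10 days in culture, supernatants of single-cell hybridomas from human DLL3-immunized mice were tested on cells and by solid-phase ELISA. A flow-cytometry signal above the control level counted as binding. The ELISA used DLL3-His coated at 0.5 μg/ml, HRP anti-mouse IgG and TMB, with reading at OD 450.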
B1: binds.
B2: binds.
B3: binds.
B4: binds.
B5: binds.
B6: binds.
B7: binds.
B8: binds.
B9: binds.
B10: binds.
B11: binds.
B12: binds.
B13: binds.
B14: binds.

Each binder was assayed against T2, human ASCL1 (assay: screen on immobilized hASCL1 or h293-hASCL1 cells).
B15: binds.
B16: binds.
